Data published in patent US20210054027.

What was measured:
[1] = system: KLDLCyclic
[2] = system: KFDFCyclic
[3] = system: Rho-KLDLCyclic
[4] = system: Rho-KFDFCyclic
Sequence of Rho-KFDFCyclic (chain, as listed by the source): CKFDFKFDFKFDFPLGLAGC

Sequence of MMP-9 (recombinant human catalytic domain) (chain, as listed by the source): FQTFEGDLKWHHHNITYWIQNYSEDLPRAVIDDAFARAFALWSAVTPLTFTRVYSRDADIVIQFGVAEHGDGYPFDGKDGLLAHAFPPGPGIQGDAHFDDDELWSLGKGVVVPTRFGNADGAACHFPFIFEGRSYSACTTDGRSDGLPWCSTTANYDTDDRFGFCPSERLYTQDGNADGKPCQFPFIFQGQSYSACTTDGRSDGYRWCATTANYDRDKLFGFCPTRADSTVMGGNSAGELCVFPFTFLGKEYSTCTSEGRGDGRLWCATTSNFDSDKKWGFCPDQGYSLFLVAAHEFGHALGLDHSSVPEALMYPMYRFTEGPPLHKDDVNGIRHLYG
Sequence of Rho-KLDLCyclic (chain, as listed by the source): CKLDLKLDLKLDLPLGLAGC

| Substance | enzymatic cleavage of progelator (data not shown) [1] | enzymatic cleavage of progelator (LCMS, 5 hr) [2] | enzymatic cleavage of progelator (visible aggregation, TEM fibers) [3] | enzymatic cleavage of progelator (visible aggregation, TEM fibers) [4] | enzymatic cleavage of progelator (TEM fibers, CD) [3] | enzymatic cleavage of progelator (TEM fibers, CD) [4] |
| --- | --- | --- | --- | --- | --- | --- |
| MMP-9 (recombinant human catalytic domain) | KFDFCyclic and KLDLCyclic (data not shown) were treated with MI-associated enzymes, MMP-9 and elastase to confirm enzyme responsiveness | KFDFCyclic and KLDLCyclic (data not shown) were treated with MI-associated enzymes, MMP-9 and elastase to confirm enzyme responsiveness | Enzymatic cleavage by active MMP-9 and elastase (FIGS. 20a-20d) induced visible aggregation in the reaction vial and entangled fibrous meshes by TEM, whereas denatured enzymes elicited no response | Enzymatic cleavage by active MMP-9 and elastase (FIGS. 20a-20d) induced visible aggregation in the reaction vial and entangled fibrous meshes by TEM, whereas denatured enzymes elicited no response | – | – |
| Thermolysin | – | – | – | – | Despite the promiscuous activity of thermolysin, incubation with Rho-KLDLCyclic and Rho-KFDFCyclic induced fiber formation by TEM | Despite the promiscuous activity of thermolysin, incubation with Rho-KLDLCyclic and Rho-KFDFCyclic induced fiber formation by TEM |
